In patent US20060257904A1:

Biological target: human recombinant prion protein (hrPrP), amino acid residues 23-231 of human PrPC (human) (UniProt P04156)
Assay: cell-based or functional assay

α-2 macroglobulin (α2M), purified preparation
protection of PrP from PK degradation: 4 µg | protection of PrP from PK degradation in a mixture with tubulin: 16 µg | protection of PrP from PK proteolysis (immunoblot with mAb 34C9): 5 µg | protection of rhuPrP from PK degradation, dose dependence: > 6 µg
